Article PMC8076793

Target: DexA (bacteriophage T4)
Test: SEC; Äkta pure, HiLoad 16/600 Superdex 75 pg (Cef, MRH, Pin, DexA) or Superdex 200 pg (Y04L, Gp57B), in the respective dialysis buffers (Supplementary Table 3)

DexA, sequence (P04536 whole entry): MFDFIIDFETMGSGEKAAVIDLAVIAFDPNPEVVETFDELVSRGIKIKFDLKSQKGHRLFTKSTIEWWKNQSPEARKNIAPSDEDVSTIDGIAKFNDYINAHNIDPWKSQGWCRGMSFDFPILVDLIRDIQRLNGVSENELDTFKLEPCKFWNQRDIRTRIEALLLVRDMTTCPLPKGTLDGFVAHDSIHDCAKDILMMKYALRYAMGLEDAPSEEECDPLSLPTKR

stoichiometry N: 2
Substance: DexA (enzyme)
